± gives the uncertainty stated by the source.

The data set is described as follows: abundance fitness (aPCA) (normalised: wild type 0, dead -1); higher = more abundant; growth selection in yeast, the domain comes from the species named. The note with it: Homo sapiens.
On to “BAG family molecular chaperone regulator 3 N16K, O95817”, for which the abundance fitness is 1.04 ± 0.12. On to “BAG family molecular chaperone regulator 3 N16L, O95817”, for which the abundance fitness stood at 0.33 ± 0.1. For “BAG family molecular chaperone regulator 3 N16M, O95817” the value was 0.276 ± 0.065; for “BAG family molecular chaperone regulator 3 N16P, O95817”, 0.153 ± 0.14. Take “BAG family molecular chaperone regulator 3 N16Q, O95817”: the abundance fitness is 0.465 ± 0.17.

The substance “BAG family molecular chaperone regulator 3 N16R, O95817” showed an abundance fitness of 0.231 ± 0.065. In turn, “BAG family molecular chaperone regulator 3 N16T, O95817” yielded an abundance fitness of 0.666 ± 0.11. As for “BAG family molecular chaperone regulator 3 N16V, O95817”, the abundance fitness was 0.368 ± 0.1. For “BAG family molecular chaperone regulator 3 N16Y, O95817” the value was 0.117 ± 0.1; for “BAG family molecular chaperone regulator 3 N43A, O95817”, -0.331 ± 0.087; for “BAG family molecular chaperone regulator 3 N43C, O95817”, -0.681 ± 0.38. The value for “BAG family molecular chaperone regulator 3 N43D, O95817” was -0.622 ± 0.31; that for “BAG family molecular chaperone regulator 3 N43G, O95817” was -0.531 ± 0.14; that for “BAG family molecular chaperone regulator 3 N43H, O95817” was -0.384 ± 0.38. For the substance “BAG family molecular chaperone regulator 3 N43K, O95817”, the abundance fitness was -0.648 ± 0.24.

Regarding “BAG family molecular chaperone regulator 3 N43L, O95817”, the abundance fitness is -0.629 ± 0.12.

For the substance “BAG family molecular chaperone regulator 3 N43P, O95817”, the abundance fitness was -0.42 ± 0.3. “BAG family molecular chaperone regulator 3 N43Q, O95817”: the abundance fitness was -0.435 ± 0.43. Consider “BAG family molecular chaperone regulator 3 N43R, O95817”, for which the abundance fitness is -0.549 ± 0.12. For “BAG family molecular chaperone regulator 3 N43S, O95817” the value was 0.004 ± 0.2; for “BAG family molecular chaperone regulator 3 N43T, O95817”, -0.416 ± 0.085; for “BAG family molecular chaperone regulator 3 N43V, O95817”, -0.418 ± 0.12.

As to “BAG family molecular chaperone regulator 3 N43W, O95817”, the abundance fitness was -0.415 ± 0.42. Take “BAG family molecular chaperone regulator 3 N43Y, O95817”: the abundance fitness was -0.366 ± 0.4. As for “BAG family molecular chaperone regulator 3 N50A, O95817”, the abundance fitness came out at 0.249 ± 0.15.

For “BAG family molecular chaperone regulator 3 N50C, O95817”, the abundance fitness amounted to 0.032 ± 0.13.

For “BAG family molecular chaperone regulator 3 N50D, O95817”, the abundance fitness is -0.126 ± 0.2. For “BAG family molecular chaperone regulator 3 N50E, O95817” the value was 0.063 ± 0.096.

Substance “BAG family molecular chaperone regulator 3 N50F, O95817” registered an abundance fitness of 0.181 ± 0.11. Turning to “BAG family molecular chaperone regulator 3 N50G, O95817”, the abundance fitness was -0.358 ± 0.13. For the substance “BAG family molecular chaperone regulator 3 N50H, O95817”, the abundance fitness was -0.166 ± 0.19.

For the substance “BAG family molecular chaperone regulator 3 N50I, O95817”, the abundance fitness worked out at 0.656 ± 0.23. The value for “BAG family molecular chaperone regulator 3 N50K, O95817” was -0.176 ± 0.11. “BAG family molecular chaperone regulator 3 N50L, O95817”: the abundance fitness is -0.181 ± 0.17.

For the substance “BAG family molecular chaperone regulator 3 N50M, O95817”, the abundance fitness is -0.255 ± 0.086. On to “BAG family molecular chaperone regulator 3 N50P, O95817”, for which the abundance fitness was -0.353 ± 0.31. Turning to “BAG family molecular chaperone regulator 3 N50Q, O95817”, the abundance fitness is -0.176 ± 0.1.

Regarding “BAG family molecular chaperone regulator 3 N50R, O95817”, the abundance fitness was -0.034 ± 0.13. The value for “BAG family molecular chaperone regulator 3 N50S, O95817” was -0.26 ± 0.085. “BAG family molecular chaperone regulator 3 N50T, O95817”: the abundance fitness was -0.435 ± 0.11. For the substance “BAG family molecular chaperone regulator 3 N50W, O95817”, the abundance fitness came out at 0.441 ± 0.15. For “BAG family molecular chaperone regulator 3 N50Y, O95817” the value was 0.235 ± 0.16; for “BAG family molecular chaperone regulator 3 P21A, O95817”, 0.383 ± 0.085. With “BAG family molecular chaperone regulator 3 P21C, O95817”, the abundance fitness stood at 0.548 ± 0.1. In the case of “BAG family molecular chaperone regulator 3 P21D, O95817”, the abundance fitness is -0.124 ± 0.16. In the case of “BAG family molecular chaperone regulator 3 P21E, O95817”, the abundance fitness stood at 0.307 ± 0.12. “BAG family molecular chaperone regulator 3 P21F, O95817” came in with an abundance fitness of 0.097 ± 0.21. Consider “BAG family molecular chaperone regulator 3 P21G, O95817”, for which the abundance fitness turned out to be 0.43 ± 0.057. In the case of “BAG family molecular chaperone regulator 3 P21H, O95817”, the abundance fitness is -0.103 ± 0.26. In turn, “BAG family molecular chaperone regulator 3 P21K, O95817” had an abundance fitness of 0.439 ± 0.059. With “BAG family molecular chaperone regulator 3 P21L, O95817”, the abundance fitness was -0.112 ± 0.094. In turn, “BAG family molecular chaperone regulator 3 P21M, O95817” gave an abundance fitness of 0.673 ± 0.18. Consider “BAG family molecular chaperone regulator 3 P21N, O95817”, for which the abundance fitness is -0.081 ± 0.21.

For “BAG family molecular chaperone regulator 3 P21Q, O95817”, the abundance fitness is 0.192 ± 0.063. Consider “BAG family molecular chaperone regulator 3 P21R, O95817”, for which the abundance fitness amounted to 0.382 ± 0.081. Substance “BAG family molecular chaperone regulator 3 P21S, O95817” registered an abundance fitness of 0.349 ± 0.089. The value for “BAG family molecular chaperone regulator 3 P21V, O95817” was 0.443 ± 0.063; that for “BAG family molecular chaperone regulator 3 P21W, O95817” was -0.543 ± 0.086; that for “BAG family molecular chaperone regulator 3 P21Y, O95817” was -0.152 ± 0.21. For the substance “BAG family molecular chaperone regulator 3 P23A, O95817”, the abundance fitness is -0.378 ± 0.16. On to “BAG family molecular chaperone regulator 3 P23C, O95817”, for which the abundance fitness is -0.932 ± 0.19.

Take “BAG family molecular chaperone regulator 3 P23E, O95817”: the abundance fitness is -0.544 ± 0.14. As for “BAG family molecular chaperone regulator 3 P23F, O95817”, the abundance fitness was -0.697 ± 0.44. On to “BAG family molecular chaperone regulator 3 P23G, O95817”, for which the abundance fitness is -0.622 ± 0.18. For “BAG family molecular chaperone regulator 3 P23H, O95817”, the abundance fitness turned out to be 0.173 ± 0.23. On to “BAG family molecular chaperone regulator 3 P23I, O95817”, for which the abundance fitness was -0.612 ± 0.22. Consider “BAG family molecular chaperone regulator 3 P23K, O95817”, for which the abundance fitness was -0.604 ± 0.094. In the case of “BAG family molecular chaperone regulator 3 P23L, O95817”, the abundance fitness is -0.858 ± 0.2. Consider “BAG family molecular chaperone regulator 3 P23M, O95817”, for which the abundance fitness is -0.772 ± 0.34.

In the case of “BAG family molecular chaperone regulator 3 P23Q, O95817”, the abundance fitness was -0.83 ± 0.33. With “BAG family molecular chaperone regulator 3 P23S, O95817”, the abundance fitness was -0.864 ± 0.26. For “BAG family molecular chaperone regulator 3 P23W, O95817”, the abundance fitness was -0.692 ± 0.095.

Consider “BAG family molecular chaperone regulator 3 P23Y, O95817”, for which the abundance fitness was -0.54 ± 0.29. Turning to “BAG family molecular chaperone regulator 3 P24A, O95817”, the abundance fitness was -0.464 ± 0.096.

For “BAG family molecular chaperone regulator 3 P24C, O95817”, the abundance fitness is -0.489 ± 0.29. Consider “BAG family molecular chaperone regulator 3 P24D, O95817”, for which the abundance fitness is -0.597 ± 0.36. For “BAG family molecular chaperone regulator 3 P24F, O95817” the value was -0.383 ± 0.31; for “BAG family molecular chaperone regulator 3 P24G, O95817”, -0.77 ± 0.22. In turn, “BAG family molecular chaperone regulator 3 P24K, O95817” returned an abundance fitness of 0.269 ± 0.16. With “BAG family molecular chaperone regulator 3 P24M, O95817”, the abundance fitness is -0.662 ± 0.21. The value for “BAG family molecular chaperone regulator 3 P24N, O95817” was 0.135 ± 0.24.

(Values after the Human Domainome abundance scans (Beltran et al. 2025).)
